The target of test [1] is human HER3-Fc protein (R&D system) (human) (UniProt P21860). In words: ELISA towards a 250 ng/ml coating solution of HER3 receptor, purified antibody. (In general: ELISA stands for enzyme-linked immunosorbent assay.)
Test [2] has as its target HER3 receptor (soluble analyte of the BIACORE analysis) (human) (UniProt P21860). In words: SPR, BIACORE 3000, 25 °C; antibody captured by anti-mouse polyclonal on CM5, HER3 receptor injected; bivalent analyte model. For orientation: SPR reads the build-up and loss of mass on a sensor chip optically.
Test [3] deals with human HER3-Fc protein (R&D system) (human) (UniProt P21860). Briefly: ELISA, HER3-Fc coated at 250 ng/ml.

One molecule from US20140112931A1 can be followed below.

B1: murine anti-HER3 monoclonal antibody 9F7-F11 (antibody, from another filing, V domains shown)
VH: EVKLVESGGGLVQPGGSLKLSCAASGFTFSSYTMSWVRQTPEKRLEWVAYISDGGGVTYYPDTIKGRFTISRDNAKNTLYLQMSSLKSEDTAMYYCARDRYGLFAYWGQGTLVTVSA
VL: DIVMTQSQKFMSTSVGDRVSITCKASQNVGIAVAWYQQKPGQSPKLLIYSASNRYTGVPDRFTGSGSGTDFTLTISNMQSEDLADYFCQQYSNYPYTFGGGTKLEIK
In the case of B1, the Ab titer after purification (Ab concentration showing an absorbance of 1 by ELISA) in test [1] is 400 pg/mL. In addition, in test [2], the Kd is 4.4 nM; the koff (commonly the first-order rate constant of dissociation) stood at 0.00024 s⁻¹; the kon (in general, a measure of how fast the partners come together) was determined as 54000 M⁻¹ s⁻¹. Moreover, in test [3], the EC50 (in general, the concentration that produces a half-maximal response) is below 1 ng/mL.
